Measurements reported in patent US20260109980A1 (TRUSTEES OF COLUMBIA UNIVERSITY IN THE CITY OF NEW YORK, published 2026).

B1: Vibrio cholerae Cas6 (enzyme)
chain: not shown
notes: Ribonuclease subunit of Cascade, seen within the TniQ-Cascade cryo-EM structure; also called VchCas6; Csy4
B2: Vibrio cholerae Cas7 (other)
chain: not shown
notes: Six copies stand in Cascade; Cas7.1 is the monomer furthest from Cas8 and next to Cas6, and Cas7.2 is the next one; also called VchCas7; Cas7.1

Key:
[1] = biological target: B2; assay: cryo-EM structure
[2] = biological target: B1; assay: cryo-EM structure

| Binder | binding result [1] | binding result [2] |
| --- | --- | --- |
| B1 | binds |  |
| B2 |  | binds |
